Experiment in all cases: cell-based or functional assay
The target of assay [1] is SARS-CoV-2 spike protein, Alpha (B.1.1.7) variant, on pseudovirus (SARS-CoV-2 (Alpha variant)).
Assay [2] addresses SARS-CoV-2 spike protein, Delta (B.1.617.2) variant, on pseudovirus (SARS-CoV-2 (Delta variant)).
The target of assay [3] is SARS-CoV-2 spike protein, Omicron BA.4/BA.5 variants, on pseudovirus (SARS-CoV-2 (Omicron BA.4/BA.5 variants)).
In assay [4] the target is SARS-CoV-2 spike protein, Gamma (P.1) variant, on pseudovirus (SARS-CoV-2 (Gamma variant)).
Assay [5] concerns the target SARS-CoV-2 spike protein, Beta (B.1.351) variant, on pseudovirus (SARS-CoV-2 (Beta variant)).
Assay [6] has as its target SARS-CoV-2 spike protein, Omicron BA.2 variant, on pseudovirus (SARS-CoV-2 (Omicron BA.2 variant)).

On to S2E12 (antibody), for which the IC50 (µg/ml), pseudotyped virus neutralization in assay [1] is 0.0004 µg/mL; in assay [2] it was less than 0.0003 µg/mL; in assay [3] it was more than 1 µg/mL; in assay [4], 0.0003 µg/mL; in assay [5] it was less than 0.0003 µg/mL; in assay [6] it was 0.137 µg/mL.
With S309 (antibody), the IC50 (µg/ml), pseudotyped virus neutralization in assay [1] stood at 0.0347 µg/mL; in assay [2], 0.0336 µg/mL; in assay [3], 0.142 µg/mL; in assay [4], 0.0083 µg/mL; in assay [5], 0.0043 µg/mL; in assay [6] it was 0.416 µg/mL.

These data come from EP4349860A1.
